Data: paper PMC12052686, “NADK tetramer defective mutants affect lung cancer response to chemotherapy via controlling NADK activity” (Genes & Diseases, 2025)
Numbering of substitutions follows the chain as printed. Blank lines part the entries; values can stand above or below the molecule they belong to.

Experiments:
[1] = target: T1, human NADK (cNADK, full-length) (Homo sapiens, UniProt O95544, C349S); test: isothermal titration calorimetry; type: binding
T1 construct: full-length, modified pET28a, His tag cleaved by TEV, E. coli BL21, HisTrap / Resource Q / Superdex 200, tetramer
T1 sequence (O95544 1-446 C349S): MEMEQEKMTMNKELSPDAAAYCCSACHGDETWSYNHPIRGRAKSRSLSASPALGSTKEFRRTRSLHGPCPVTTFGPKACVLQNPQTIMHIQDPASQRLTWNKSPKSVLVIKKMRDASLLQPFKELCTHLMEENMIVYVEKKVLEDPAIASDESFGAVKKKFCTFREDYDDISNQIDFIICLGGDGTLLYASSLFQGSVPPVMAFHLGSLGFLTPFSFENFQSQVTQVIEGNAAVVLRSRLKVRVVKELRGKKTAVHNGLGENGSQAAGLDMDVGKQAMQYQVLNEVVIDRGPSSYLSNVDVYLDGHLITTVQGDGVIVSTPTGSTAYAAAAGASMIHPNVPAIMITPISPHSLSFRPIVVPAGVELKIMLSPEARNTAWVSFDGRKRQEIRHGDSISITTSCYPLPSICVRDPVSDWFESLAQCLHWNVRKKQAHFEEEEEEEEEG

[2] = target: the molecule itself; test: cryo-EM structure; single-particle cryo-EM of the purified, substrate-free NADK tetramer (10 mg/mL); 2.54 Å
[3] = target: the molecule itself; test: SEC; lysates of transfected HEK293T cells with endogenous NADK knocked out, Superdex 200 Increase 10/300 GL, 0.5 mL/min; fractions analysed by immunoblotting

- Kd [1]: 86.9 µM
Molecule: NC(=O)c1ccc[n+]([C@@H]2O[C@H](COP(=O)([O-])OP(=O)(O)OC[C@H]3O[C@@H](n4cnc5c(N)ncnc54)[C@H](O)[C@@H]3O)[C@@H](O)[C@H]2O)c1 [NAD^+]

B1: full-length human NADK (NAD+ kinase), purified tetramer (enzyme, UniProt O95544 1-446, looked up)
chain: T1 sequence (O95544 1-446 C349S) with S349C
notes: Cloned in a modified pET28a vector; the tetramer peak of the Superdex 200 column was collected for cryo-EM; In the map the protomers are visible only from residues 98, 95, 96 and 98; also called cNADK; cytoplasmic NADK; source: E. coli BL21, purified (HisTrap FF, TEV cleavage, Resource Q, Superdex 200 Increase)
- stoichiometry N [2]: 4

B2: N-terminal truncated NADK (95-446) (domain or fragment, human, UniProt O95544 95-446, looked up)
chain: SQRLTWNKSPKSVLVIKKMRDASLLQPFKELCTHLMEENMIVYVEKKVLEDPAIASDESFGAVKKKFCTFREDYDDISNQIDFIICLGGDGTLLYASSLFQGSVPPVMAFHLGSLGFLTPFSFENFQSQVTQVIEGNAAVVLRSRLKVRVVKELRGKKTAVHNGLGENGSQAAGLDMDVGKQAMQYQVLNEVVIDRGPSSYLSNVDVYLDGHLITTVQGDGVIVSTPTGSTAYAAAAGASMIHPNVPAIMITPICPHSLSFRPIVVPAGVELKIMLSPEARNTAWVSFDGRKRQEIRHGDSISITTSCYPLPSICVRDPVSDWFESLAQCLHWNVRKKQAHFEEEEEEEEEG
notes: also called ΔN95; N-terminal truncation mutant; source: HEK293T with endogenous NADK knocked out, transfected, in lysate
- stoichiometry N [3]: 4
